According to patent US20240116985A1 (published 2024):
Starred links: 1 amine or outer side, 2 acyl side, 3 side chain; linkers in the order of their positions; H or OH if unused. Positions of bridges follow the written chain, without caps; N, C: chain ends. Non-standard residues stand in square brackets, D forms with d. Primed or numbered codes have the meaning given here. (Me2NPrPip)GlnR = (S)-2-amino-5-(4-(3-(dimethylamino)propyl)piperazin-1-yl)-5-oxopentanoic acid, CN(C)CCCN1CCN(C(=O)CC[C@H](N[*:1])C(=O)[*:2])CC1; PyrS2″ = (S)-3-amino-1-((pent-4-en-1-yloxy)carbonyl)pyrrolidine-3-carboxylic acid (stapling residue), C=CCCCOC(=O)N1CC[C@@](N[*:1])(C(=O)[*:2])C1; (RDMAPyr)GlnR = (S)-2-amino-5-((R)-3-(dimethylamino)pyrrolidin-1-yl)-5-oxopentanoic acid, CN(C)[C@@H]1CCN(C(=O)CC[C@H](N[*:1])C(=O)[*:2])C1; B5(4) = 2,2-bis(4-pentenyl)glycine = 2-amino-2-(pent-4-en-1-yl)hept-6-enoic acid (stitching residue), C=CCCCC(CCCC=C)(N[*:1])C(=O)[*:2]; (4PyPip)GlnR = (S)-2-amino-5-oxo-5-(4-(pyridin-4-yl)piperazin-1-yl)pentanoic acid, O=C(CC[C@H](N[*:1])C(=O)[*:2])N1CCN(c2ccncc2)CC1; TfeGA = (S)-2-amino-3-((carboxymethyl)(2,2,2-trifluoroethyl)amino)propanoic acid, O=C([C@H](CN(CC(=O)[*:3])CC(F)(F)F)N[*:1])[*:2]; (4Pippip)GlnR″ = (S)-5-([1,4'-bipiperidin]-1'-yl)-2-amino-5-oxopentanoic acid, O=C(CC[C@H](N[*:1])C(=O)[*:2])N1CCC(N2CCCCC2)CC1; PyrS2 = (S)-3-amino-1-((pent-4-en-1-yloxy)carbonyl)pyrrolidine-3-carboxylic acid, C=CCCCOC(=O)N1CC[C@@](N[*:1])(C(=O)[*:2])C1; B5(27) = 2-amino-2-(pent-4-en-1-yl)hept-6-enoic acid (two alkene side-chain arms), C=CCCCC(CCCC=C)(N[*:1])C(=O)[*:2]; B5(19) = 2-amino-2-(pent-4-en-1-yl)hept-6-enoic acid (bis(4-pentenyl)glycine), C=CCCCC(CCCC=C)(N[*:1])C(=O)[*:2]; MePpzAsn = (S)-2-amino-4-(4-methylpiperazin-1-yl)-4-oxobutanoic acid, CN1CCN(C(=O)C[C@H](N[*:1])C(=O)[*:2])CC1; (Ppz)GlnR = (S)-2-amino-5-oxo-5-(piperazin-1-yl)pentanoic acid, O=C(CC[C@H](N[*:1])C(=O)[*:2])N1CCN([*:3])CC1; F2PipNva = (S)-2-amino-5-(4,4-difluoropiperidin-1-yl)pentanoic acid, O=C([C@H](CCCN1CCC(F)(F)CC1)N[*:1])[*:2]; MorphAsn = (S)-2-amino-4-morpholino-4-oxobutanoic acid, O=C(C[C@H](N[*:1])C(=O)[*:2])N1CCOCC1; B5(3) = 2,2-bis(4-pentenyl)glycine (stitching residue), C=CCCCC(CCCC=C)(N[*:1])C(=O)[*:2]; MorphAbu = (S)-2-amino-4-morpholinobutanoic acid, O=C([C@H](CCN1CCOCC1)N[*:1])[*:2]; Phe(4-(3-Py)) = N[C@@H](Cc1ccc(-c2cccnc2)cc1)C(=O)O; Nva(5-morpholino) = N[C@@H](CCCN1CCOCC1)C(=O)O; Phe(2-Cl) = N[C@@H](Cc1ccccc1Cl)C(=O)O; Phe(2-OMe) = COc1ccccc1C[C@H](N)C(=O)O; 1Nal = N[C@@H](Cc1cccc2ccccc12)C(=O)O; 2Nal = N[C@@H](Cc1ccc2ccccc2c1)C(=O)O; Phe(2-F) = N[C@@H](Cc1ccccc1F)C(=O)O; Bta = N[C@@H](Cc1csc2ccccc12)C(=O)O; αAllylPro = C=CC[C@@]1(C(=O)O)CCCN1; tBuAla = CC(C)(C)C[C@H](N)C(=O)O; 3Thi = N[C@@H](Cc1ccsc1)C(=O)O; Cha = N[C@@H](CC1CCCCC1)C(=O)O; TfeGA″ = not defined here; hSer = N[C@@H](CCO)C(=O)O

T1: B-cat-Halo (beta-catenin HaloTag fusion expressed in HEK293 cells) (UniProt P35222 1-781, HaloTag labelled with HaloTag NanoBRET 618 Ligand)
T1 sequence (looked up): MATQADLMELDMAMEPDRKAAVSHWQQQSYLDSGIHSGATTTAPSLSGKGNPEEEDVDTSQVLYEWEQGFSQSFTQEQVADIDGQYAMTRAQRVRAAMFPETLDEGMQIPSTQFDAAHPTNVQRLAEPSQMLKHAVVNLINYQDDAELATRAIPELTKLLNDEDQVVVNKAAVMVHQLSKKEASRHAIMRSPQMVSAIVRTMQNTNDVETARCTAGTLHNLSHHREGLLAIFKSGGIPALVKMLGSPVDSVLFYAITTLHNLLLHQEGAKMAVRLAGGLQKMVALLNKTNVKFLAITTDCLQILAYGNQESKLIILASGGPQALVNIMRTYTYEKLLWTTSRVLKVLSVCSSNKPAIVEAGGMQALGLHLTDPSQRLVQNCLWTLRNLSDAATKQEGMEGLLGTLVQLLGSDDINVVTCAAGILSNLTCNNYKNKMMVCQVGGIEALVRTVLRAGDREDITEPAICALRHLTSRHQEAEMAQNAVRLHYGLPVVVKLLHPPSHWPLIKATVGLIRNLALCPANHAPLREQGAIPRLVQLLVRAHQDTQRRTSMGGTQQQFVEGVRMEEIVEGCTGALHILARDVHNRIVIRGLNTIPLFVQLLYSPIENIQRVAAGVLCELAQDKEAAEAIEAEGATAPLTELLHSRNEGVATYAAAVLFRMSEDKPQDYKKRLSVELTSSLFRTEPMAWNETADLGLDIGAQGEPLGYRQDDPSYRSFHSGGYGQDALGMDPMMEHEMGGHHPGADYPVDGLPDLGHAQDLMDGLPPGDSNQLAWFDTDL

T2: B-cat-Halo (beta-catenin HaloTag NanoBRET construct expressed in HEK293 cells) (UniProt P35222 1-781)
T2 sequence (looked up): T1 sequence (looked up)

T3: B-cat-Halo (beta-catenin HaloTag fusion construct expressed in HEK293 cells) (UniProt P35222 1-781)
T3 sequence (looked up): T1 sequence (looked up)

B1: I-1500 (peptide)
peptide: Ac-[αAllylPro]D[tBuAla][B5(27)]DDAAFL[PyrS2][3Thi][Bta][dQ]-NH2
modifications: staple 1-4, 4-11
B2: I-1493 (peptide)
peptide: Ac-[αAllylPro]D[tBuAla][B5(27)]DDAAFL[PyrS2][3Thi][Bta]S-NH2
modifications: staple 1-4, 4-11
B3: I-1496 (peptide)
peptide: Ac-[αAllylPro]D[tBuAla][B5(27)]DDAAFL[PyrS2][3Thi][Bta]F-NH2
modifications: staple 1-4, 4-11
B4: I-1504 (peptide)
peptide: Ac-[αAllylPro]D[tBuAla][B5(27)]DDA[MorphAbu]FL[PyrS2][3Thi][Bta]Q-NH2
modifications: staple 1-4, 4-11
B5: I-1485 (peptide)
peptide: Ac-[αAllylPro]D[tBuAla][B5(3)]DDAAF[Nva(5-morpholino)][PyrS2″][3Thi][Bta]Q-NH2
modifications: staple 1-4, 4-11
B6: I-1494 (peptide)
peptide: Ac-[αAllylPro]D[tBuAla][B5(27)]DDAAFL[PyrS2][3Thi][Bta]T-NH2
modifications: staple 1-4, 4-11
B7: I-1488 (peptide)
peptide: Ac-[αAllylPro]D[tBuAla][B5(3)]DDAAF[MePpzAsn][PyrS2″][3Thi][Bta]Q-NH2
modifications: staple 1-4, 4-11
B8: I-1501 (peptide)
peptide: Ac-[αAllylPro]D[tBuAla][B5(27)]DDA[Nva(5-morpholino)]FL[PyrS2][3Thi][Bta]Q-NH2
modifications: staple 1-4, 4-11
B9: I-1487 (peptide)
peptide: Ac-[αAllylPro]D[tBuAla][B5(3)]DDAAF[MorphAsn][PyrS2″][3Thi][Bta]Q-NH2
modifications: staple 1-4, 4-11
B10: I-1499 (peptide)
peptide: Ac-[αAllylPro]D[tBuAla][B5(27)]DDAAFL[PyrS2][3Thi][Bta][hSer]-NH2
modifications: staple 1-4, 4-11
B11: I-1484 (peptide)
peptide: Ac-[αAllylPro]D[tBuAla][B5(3)]DD[MePpzAsn]AFL[PyrS2″][3Thi][Bta]Q-NH2
modifications: staple 1-4, 4-11
B12: I-1502 (peptide)
peptide: Ac-[αAllylPro]D[tBuAla][B5(27)]DDA[F2PipNva]FL[PyrS2][3Thi][Bta]Q-NH2
modifications: staple 1-4, 4-11
B13: I-1486 (peptide)
peptide: Ac-[αAllylPro]D[tBuAla][B5(3)]DDAAF[F2PipNva][PyrS2″][3Thi][Bta]Q-NH2
modifications: staple 1-4, 4-11
B14: I-1489 (peptide)
peptide: Ac-[αAllylPro]D[tBuAla][B5(3)]DD[Phe(4-(3-Py))]AFL[PyrS2″]F[Bta]Q-NH2
modifications: staple 1-4, 4-11
B15: I-1495 (peptide)
peptide: Ac-[αAllylPro]D[tBuAla][B5(27)]DDAAFL[PyrS2][3Thi][Bta]V-NH2
modifications: staple 1-4, 4-11
B16: I-1497 (peptide)
peptide: Ac-[αAllylPro]D[tBuAla][B5(27)]DDAAFL[PyrS2][3Thi][Bta]W-NH2
modifications: staple 1-4, 4-11
B17: I-1492 (peptide)
peptide: Ac-[αAllylPro]D[tBuAla][B5(3)]DDAAFL[PyrS2″][3Thi][Bta]N-NH2
modifications: staple 1-4, 4-11
B18: I-1942 (peptide)
peptide: Ac-[αAllylPro]D[tBuAla][B5(4)]D[TfeGA″]AAF[(NHBn)GlnR][PyrS2″][3Thi][Bta]Q-NH2
modifications: staple 1-4, 4-11; reading uncertain
B19: I-1938 (peptide)
peptide: Ac-[αAllylPro]D[tBuAla][B5(19)]D[TfeGA]AAF[(4PyPip)GlnR][PyrS2″][3Thi][Bta]Q-NH2
modifications: staple 1-4, 4-11
B20: I-1939 (peptide)
peptide: Ac-[αAllylPro]D[tBuAla][B5(19)]D[TfeGA]AAF[(RDMAPyr)GlnR][PyrS2″][3Thi][Bta]Q-NH2
modifications: staple 1-4, 4-11
B21: I-1936 (peptide)
peptide: Ac-[αAllylPro]D[tBuAla][B5(19)]D[TfeGA]AAF[(Me2NPrPip)GlnR][PyrS2″][3Thi][Bta]Q-NH2
modifications: staple 1-4, 4-11
B22: I-1941 (peptide)
peptide: Ac-[αAllylPro]D[tBuAla][B5(19)]D[TfeGA]AAF[(Ppz)GlnR][PyrS2″][3Thi][Bta]Q-NH2
modifications: staple 1-4, 4-11
B23: I-1940 (peptide)
peptide: Ac-[αAllylPro]D[tBuAla][B5(19)]D[TfeGA]AAF[(4Pippip)GlnR″][PyrS2″][3Thi][Bta]Q-NH2
modifications: staple 1-4, 4-11
B24: I-1111 (peptide)
peptide: Ac-[αAllylPro]D[2Nal][B5(3)]DDAAFL[PyrS2″][2C1F][Bta]Q-NH2
modifications: staple 1-4, 4-11
B25: I-1107 (peptide)
peptide: Ac-[αAllylPro]D[Cha][B5(3)]DDAAF[Cha][PyrS2″][Phe(2-Cl)][Bta]Q-NH2
modifications: staple 1-4, 4-11
B26: I-1101 (peptide)
peptide: Ac-[αAllylPro]D[tBuAla][B5(3)]DDAAFS[PyrS2″][Phe(2-F)][Bta]S-NH2
modifications: staple 1-4, 4-11
B27: I-1105 (peptide)
peptide: Ac-[αAllylPro]D[tBuAla][B5(3)]DDAA[Cha]S[PyrS2″]F[Bta]S-NH2
modifications: staple 1-4, 4-11
B28: I-1109 (peptide)
peptide: Ac-[αAllylPro]D[2Nal][B5(3)]DDAAFS[PyrS2″][Phe(2-Cl)][Bta]Q-NH2
modifications: staple 1-4, 4-11
B29: I-1114 (peptide)
peptide: Ac-[αAllylPro]D[1Nal][B5(3)]DDAAFT[PyrS2″][Phe(2-Cl)][Bta]S-NH2
modifications: staple 1-4, 4-11
B30: I-1104 (peptide)
peptide: Ac-[αAllylPro]D[Cha][B5(3)]DDAAFS[PyrS2″][Phe(2-OMe)][Bta]S-NH2
modifications: staple 1-4, 4-11
B31: I-1103 (peptide)
peptide: Ac-[αAllylPro]D[tBuAla][B5(3)]DDAAFS[PyrS2″][Phe(2-OMe)][Bta]S-NH2
modifications: staple 1-4, 4-11
B32: I-1108 (peptide)
peptide: Ac-[αAllylPro]D[1Nal][B5(3)]DDAAFS[PyrS2″][Phe(2-Cl)][Bta]Q-NH2
modifications: staple 1-4, 4-11
B33: I-1110 (peptide)
peptide: Ac-[αAllylPro]D[1Nal][B5(3)]DDAAFL[PyrS2″][Phe(2-Cl)][Bta]Q-NH2
modifications: staple 1-4, 4-11
B34: I-1106 (peptide)
peptide: Ac-[αAllylPro]D[tBuAla][B5(3)]DDAAFS[PyrS2″][Cha][Bta]S-NH2
modifications: staple 1-4, 4-11
B35: I-1102 (peptide)
peptide: Ac-[αAllylPro]D[Cha][B5(3)]DDAAFS[PyrS2″][Phe(2-F)][Bta]S-NH2
modifications: staple 1-4, 4-11

Molecular target: T1, B-cat-Halo (beta-catenin HaloTag fusion …)
Test: cell-based or functional assay

Row | NanoBRET Abs IC50 | Binder
1 | 4.7 µM | B1
2 | 4.9 µM | B2
3 | 9.4 µM | B3
4 | > 20 µM | B4
5 | 25.8 µM | B5
6 | 14.7 µM | B6
7 | 30.3 µM | B7
8 | > 20 µM | B8
9 | 21.5 µM | B9
10 | 6.4 µM | B10
11 | > 20 µM | B11
12 | > 20 µM | B12
13 | 17.9 µM | B13
14 | 9.2 µM | B14
15 | 23.9 µM | B15
16 | 11.4 µM | B16
17 | 7.3 µM | B17

Molecular target: T2, B-cat-Halo (beta-catenin HaloTag …)
Test: cell-based or functional assay

Row | NanoBRET Abs IC50 | Binder
18 | 7.9 µM | B18
19 | 30 µM | B19
20 | 20.7 µM | B20
21 | 15.7 µM | B21
22 | 12.9 µM | B22
23 | 15.4 µM | B23

Molecular target: T3, B-cat-Halo (beta-catenin HaloTag fusion …)
Test: cell-based or functional assay

Row | NanoBRET Abs IC50 | Binder
24 | > 20 µM | B24
25 | 11.8 µM | B25
26 | 27 µM | B26
27 | > 20 µM | B27
28 | > 20 µM | B28
29 | > 20 µM | B29
30 | 17.7 µM | B30
31 | 16.7 µM | B31
32 | > 20 µM | B32
33 | > 20 µM | B33
34 | > 20 µM | B34
35 | 27.2 µM | B35
